Values of other authors, collected in article PMC7134607.

Molecular target: SARS main protease (SARS coronavirus) (UniProt P0C6X7)

## SARS main protease (from UniProt P0C6X7)
  Kd: 100 µM
